Reference: US20220403023A1
Values belong to the binder of their own block, whether it stands above or below them.

Key:
[1] = biological target: CD47 on human red blood cells (human) (UniProt Q08722); assay: FACS on human red blood cells, goat anti-human IgG-Fc PE
[2] = biological target: CD47 on human red blood cells (human) (UniProt Q08722); assay: FACS on human red blood cells, goat anti-human IgG-Fc PE; blank (Neg) 232
[3] = biological target: human CD47 ECD protein (human) (UniProt Q08722); assay: ELISA on plate-coated human CD47 ECD (1 µg/mL), goat anti-human IgG-Fc-HRP, OD450
[4] = biological target: human CD47 on engineered CHO-K1 cells (human) (UniProt Q08722); assay: FACS on CHO-K1 cells expressing human CD47 (CHOK1-huCD47), goat anti-human IgG-Fc PE
[5] = biological target: human CD47 on engineered CHO-K1 cells (human) (UniProt Q08722); assay: competition FACS against human SIRPα-His (1 µg/mL) on CHOK1-huCD47 cells; ligand only 1086
[6] = biological target: cynomolgus monkey CD47 on engineered CHO-K1 cells (cynomolgus monkey); assay: FACS on CHO-K1 cells expressing cynomolgus CD47 (CHOK1-cynoCD47), goat anti-human IgG-Fc PE
[7] = biological target: human CD47 ECD protein (human) (UniProt Q08722); assay: ELISA on plate-coated human CD47 ECD (1 µg/mL), goat anti-human IgG-Fc-HRP, OD450; blank (Neg) 0.102
[8] = biological target: human CD47 ECD protein (human) (UniProt Q08722); assay: competition ELISA against human SIRPα-His (1 µg/mL) on plate-coated human CD47 ECD; ligand only 1.438
[9] = biological target: human CD47 on engineered CHO-K1 cells (human) (UniProt Q08722); assay: FACS on CHO-K1 cells expressing human CD47 (CHOK1-huCD47), goat anti-human IgG-Fc PE; blank (Neg) 34.8
[10] = biological target: cynomolgus monkey CD47 on engineered CHO-K1 cells (cynomolgus monkey); assay: FACS on CHO-K1 cells expressing cynomolgus CD47 (CHOK1-cynoCD47), goat anti-human IgG-Fc PE; blank (Neg) 47.6
[11] = biological target: human CD47 ECD protein (human) (UniProt Q08722); assay: competition ELISA: plate-coated human CD47 ECD (1 µg/mL), antibody titrated together with human SIRPα-His (1 µg/mL), bound SIRPα detected with anti-His-HRP
[12] = biological target: human CD47 on engineered CHO-K1 cells (human) (UniProt Q08722); assay: competition FACS: CHO-K1 cells expressing human CD47, antibody titrated together with human SIRPα-His (1 µg/mL), bound SIRPα detected with anti-His-biotin and streptavidin-PE

Sequence of cynomolgus monkey CD47 on engineered CHO-K1 cells (cynomolgus monkey) (chain, as listed by the source, change not shown): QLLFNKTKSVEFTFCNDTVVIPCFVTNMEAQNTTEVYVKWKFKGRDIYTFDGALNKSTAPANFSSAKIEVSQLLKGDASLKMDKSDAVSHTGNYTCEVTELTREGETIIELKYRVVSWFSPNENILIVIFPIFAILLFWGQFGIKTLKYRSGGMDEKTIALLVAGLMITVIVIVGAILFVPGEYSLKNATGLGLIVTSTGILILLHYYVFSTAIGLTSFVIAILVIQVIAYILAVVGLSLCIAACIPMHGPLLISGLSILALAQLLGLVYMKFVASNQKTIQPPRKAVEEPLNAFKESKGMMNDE

EC50 [1]: 0.69 nM
Max MFI [2]: 42800 MFI
EC50 [3]: 0.019 nM
EC50 [4]: 0.43 nM
Max Inhibit% [5]: 71.3%
Min MFI [5]: 312 MFI
EC50 [6]: 0.34 nM
Max OD [7]: 1.92 OD450
Max Inhibit% [8]: 91.7%
Min OD [8]: 0.12 OD450
Max MFI [9]: 50000 MFI
Max MFI [10]: 34200 MFI
IC50 [11]: 0.97 nM
IC50 [12]: 0.51 nM
B1: W345-BMK1.uIgG4PE.K (antibody, from another filing, V domains shown)
VH: QMQLVQSGAEVKKTGSSVKVSCKASGFNIKDYYLHWVRQAPGQALEWMGWIDPDQGDTEYAQKFQDRVTITRDRSMSTAYMELSSLRSEDTAMYYCNAAYGSSSYPMDYWGQGTTVTV
VL: NIQMTQSPSAMSASVGDRVTITCKASQDIHRYLSWFQQKPGKVPKHLIYRANRLVSGVPSRFSGSGSGTEFTLTISSLQPEDFATYYCLQYDEFPYTFGGGTKVEIK

EC50 [1]: 4.82 nM
Max MFI [2]: 37600 MFI
EC50 [3]: 0.038 nM
EC50 [4]: 1.22 nM
Max Inhibit% [5]: 67.4%
Min MFI [5]: 354 MFI
EC50 [6]: 38.9 nM
Max OD [7]: 1.82 OD450
Max Inhibit% [8]: 90.5%
Min OD [8]: 0.137 OD450
Max MFI [9]: 55400 MFI
Max MFI [10]: 30600 MFI
IC50 [11]: 2.84 nM
IC50 [12]: 1.92 nM
B2: W345-BMK4.uIgG4.SPK (antibody, from another filing, V domains shown)
VH: QVQLQESGPGLVKPSGTLSLTCAVSGVSIRSINWWNWVRQPPGKGLEWIGEIYHSGSTNYNPSLKSRVTISVDKSKNQFSLKLNSVTAADTAVYYCARDGGIAVTDYYYYGLDVWGQGTTVTVSS
VL: EIVLTQSPATLSLSPGERATLSCRASESVSSNLAWYQQKPGQAPRLLIYGAFNRATGIPARFSGSGSGTDFTLTISSLEPEDFAVYYCQQRSDWFTFGGGTKVEIK
